Measured values from the supplement of paper PMC10126150.
± gives the standard deviation of the averaged measurements.
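Also: ATP exposure 15 min at 22 °C before imaging.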

Each sequence was assayed on ATP (assay: switch fluorescence ratio, 500 uM ATP over buffer (Cy3 cluster intensity, sum of 5 cycles each) (fold (ratio)); higher = stronger signal-on switching upon ATP binding; sequences stand for … in TCGTCGGCAGCGTCAGATGTGTATAAGAGACAGTTTTTTTTTTTTTTTTTTTTTTTTT…TC). Conditions: aptamer strand: ATP DNA aptamer (quencher-CACCTGGGGGAGTATTGCGGAGGAAGG + anchor), 100 nM annealed; ATP concentration: 500 uM.
In short: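 Imaging in selection buffer was followed by imaging after 15 min with 500 uM ATP at 22 °C, for Cy3-labelled switching-strand clusters annealed to 100 nM quencher-labelled ATP aptamer on a modified Illumina MiSeq flow-cell. Five of these buffer/ATP cycles ran, separated by NaOH stripping and re-annealing. The fluorescence ratio per cluster is summed target-cycle over summed buffer-cycle Cy3 intensity, averaged per switch-domain sequence; clusters outside 100-1000 RFU were removed.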
CGTGACGGGG showed a switch fluorescence ratio of 0.978 ± 0.043.
Sequence AATTAGTACG has a switch fluorescence ratio of 0.981 ± 0.052.
TATTCTTTTT gave a switch fluorescence ratio of 0.968 ± 0.04.
TATGAGGGTG gave a switch fluorescence ratio of 1.08 ± 0.13.
Sequence GGGAGTGGGC has a switch fluorescence ratio of 0.87939 ± 0.00069.
Sequence TAGGGATATA has a switch fluorescence ratio of 0.985 ± 0.035.
For TGCTGAGTTT, the switch fluorescence ratio was 1.01 ± 0.05.
With TTTAGGGGGA the switch fluorescence ratio was 1.01 ± 0.044.
For GGCTTTTTAC, the switch fluorescence ratio was 1.06 ± 0.036.
Work on TAGTGCGTCG yielded a switch fluorescence ratio of 0.942 ± 0.063.
Sequence TTCGTGATTT has a switch fluorescence ratio of 1.02 ± 0.04.
TTTTTCCGTA showed a switch fluorescence ratio of 1.02 ± 0.059.
TTTATATTAA gave a switch fluorescence ratio of 1.03 ± 0.049.
AATTTAAAGT showed a switch fluorescence ratio of 0.951 ± 0.052.
TTGGCATCAC gave a switch fluorescence ratio of 1.06 ± 0.045.
For ATTAAAATAC, the switch fluorescence ratio was 1.09 ± 0.11.
Sequence TAAGGTATTA has a switch fluorescence ratio of 0.972 ± 0.019.
With TGAATACGGG the switch fluorescence ratio was 1.006 ± 0.004.
TTTGGCTGAA showed a switch fluorescence ratio of 1.01 ± 0.019.
In the case of CAGGCGTGCA, the switch fluorescence ratio is reported as 0.998 ± 0.018.
For GAAAGTAACC, the switch fluorescence ratio was 1.05 ± 0.021.
TTATTAATCT showed a switch fluorescence ratio of 0.9974 ± 0.0049.
With CCAATAGACG the switch fluorescence ratio was 1.01 ± 0.03.
Sequence CTGGGTATGT has a switch fluorescence ratio of 0.959 ± 0.027.
Work on GTTTGATCTG yielded a switch fluorescence ratio of 0.959 ± 0.026.
For GTCCTTATTT, the switch fluorescence ratio was 1.08 ± 0.022.
Work on TGGACGGGGC yielded a switch fluorescence ratio of 1.034 ± 0.0099.
GTGGGTGGGT gave a switch fluorescence ratio of 1 ± 0.025.
TTTACCTGAG gave a switch fluorescence ratio of 1.37 ± 0.025.
GTTAGTTGTT was tested, and the switch fluorescence ratio was 0.987 ± 0.013.
Sequence GAGGGGGCGC has a switch fluorescence ratio of 1.02 ± 0.031.
Sequence AAAGAAATTA has a switch fluorescence ratio of 0.997 ± 0.042.
With TAAGGGCCCG the switch fluorescence ratio was 0.991 ± 0.069.
In the case of GAGAATTTGT, the switch fluorescence ratio is reported as 0.978 ± 0.033.
TAAAGGGCGA showed a switch fluorescence ratio of 0.999 ± 0.027.
TGATCGGATA gave a switch fluorescence ratio of 1 ± 0.04.
TCTTATTGG was tested, and the switch fluorescence ratio was 1.02 ± 0.028.
ATTCCCGGTC was tested, and the switch fluorescence ratio was 1.01 ± 0.066.
GATATAGTGT was tested, and the switch fluorescence ratio was 0.991 ± 0.02.
Sequence AATAGTATCT has a switch fluorescence ratio of 1.01 ± 0.029.
For CTGGGGTGTA, the switch fluorescence ratio was 1.03 ± 0.059.
ACGCTTGCTA gave a switch fluorescence ratio of 1.02 ± 0.013.
GCTTTTCGTA was tested, and the switch fluorescence ratio was 0.9995 ± 0.0064.
TTTTCATGGG showed a switch fluorescence ratio of 0.995 ± 0.013.
AGTTGGGGCG showed a switch fluorescence ratio of 1.01 ± 0.039.
CTTTTATTGG was tested, and the switch fluorescence ratio was 1 ± 0.029.
CGCGGGGATA showed a switch fluorescence ratio of 1.18 ± 0.23.
TGGTATTTAT was tested, and the switch fluorescence ratio was 1.012 ± 0.0072.
Work on TTTAAGGTCG yielded a switch fluorescence ratio of 1.03 ± 0.082.
GATGGAGGAG gave a switch fluorescence ratio of 1.03 ± 0.027.
For GAGTCGAGTG, the switch fluorescence ratio was 1.01 ± 0.048.
Sequence ATTTTCTTAG has a switch fluorescence ratio of 0.999 ± 0.018.
AGTTCGGTGG gave a switch fluorescence ratio of 0.962 ± 0.0022.
With TATAACACTT the switch fluorescence ratio was 1.05 ± 0.024.
For TTGGGGAGCT, the switch fluorescence ratio was 1.04 ± 0.014.
For TTATGGGAAC, the switch fluorescence ratio was 0.97391 ± 0.00081.
TGGCTTGGGG gave a switch fluorescence ratio of 1.03 ± 0.051.
In the case of GGGGCAGTAG, the switch fluorescence ratio is reported as 1.04 ± 0.046.
In the case of GTGTTGGTTT, the switch fluorescence ratio is reported as 0.986 ± 0.024.
Sequence GGTTGGGGGC has a switch fluorescence ratio of 0.991 ± 0.025.
CGTAGAGGAA showed a switch fluorescence ratio of 0.994 ± 0.03.
With ACAAACGTTC the switch fluorescence ratio was 1.34 ± 0.13.
With GTGTATTGGT the switch fluorescence ratio was 0.983 ± 0.024.
Sequence ATTAGCGAGA has a switch fluorescence ratio of 1.028 ± 0.0035.
GGGGGTGGCA gave a switch fluorescence ratio of 0.998 ± 0.042.
In the case of GTTTGGGATA, the switch fluorescence ratio is reported as 0.992 ± 0.034.
In the case of ATAGGCACAT, the switch fluorescence ratio is reported as 1.03 ± 0.029.
Sequence TTTATGTGGA has a switch fluorescence ratio of 1.01 ± 0.027.
For AATGTCAGGA, the switch fluorescence ratio was 1.01 ± 0.044.
TGGGGGAATA showed a switch fluorescence ratio of 0.999 ± 0.03.
GTTGGGTTTT showed a switch fluorescence ratio of 1.02 ± 0.06.
TGATTTTCGG gave a switch fluorescence ratio of 0.974 ± 0.032.
In the case of ATCAACGGAA, the switch fluorescence ratio is reported as 1.08 ± 0.013.
AGGAATCTAG gave a switch fluorescence ratio of 0.967 ± 0.03.
With TCGTTGGGAT the switch fluorescence ratio was 0.986 ± 0.053.
For TGGATAGAGT, the switch fluorescence ratio was 0.985 ± 0.02.
For GAGCCCTTAT, the switch fluorescence ratio was 0.9812 ± 0.0078.
TGAGGTGTTT was tested, and the switch fluorescence ratio was 0.992 ± 0.023.
In the case of TTTTTTTTTC, the switch fluorescence ratio is reported as 1.04 ± 0.11.
Sequence GGGGGATGGG has a switch fluorescence ratio of 0.998 ± 0.032.
TGCGATATTA gave a switch fluorescence ratio of 1.02 ± 0.031.
Sequence TTGTTGAGAT has a switch fluorescence ratio of 1.02 ± 0.035.
In the case of ACCTATGGGA, the switch fluorescence ratio is reported as 1 ± 0.028.
Work on TTATTGAGTA yielded a switch fluorescence ratio of 1.005 ± 0.0048.
Sequence AAAAATTAAG has a switch fluorescence ratio of 1.03 ± 0.029.
AGTATTAGAA gave a switch fluorescence ratio of 0.978 ± 0.012.
For ATCGATTGAG, the switch fluorescence ratio was 0.971 ± 0.015.
CGGGTACGGT showed a switch fluorescence ratio of 0.992 ± 0.022.
Work on AATGTTGTTT yielded a switch fluorescence ratio of 0.976 ± 0.02.
TATATGGGGT showed a switch fluorescence ratio of 1 ± 0.042.
For TGCTGTTGGC, the switch fluorescence ratio was 0.928 ± 0.025.
Sequence GCATACAGGA has a switch fluorescence ratio of 1.02 ± 0.024.
CCGGTATGGT showed a switch fluorescence ratio of 1.012 ± 0.0077.
GATTTTTCGT showed a switch fluorescence ratio of 0.973 ± 0.01.
GTGTTCAAGG gave a switch fluorescence ratio of 0.971 ± 0.015.
TGCACGTTGC gave a switch fluorescence ratio of 1.02 ± 0.03.
Sequence TTTGATATAG has a switch fluorescence ratio of 0.994 ± 0.034.
Work on AGGTTAATAT yielded a switch fluorescence ratio of 1 ± 0.043.
For ATCTAAAGGG, the switch fluorescence ratio was 0.999 ± 0.015.
In the case of CTTCCTGCCA, the switch fluorescence ratio is reported as 2.69 ± 0.36.
Work on GGGAGTCCAA yielded a switch fluorescence ratio of 0.995 ± 0.019.
ATATTGAGGT was tested, and the switch fluorescence ratio was 1 ± 0.013.
TTATTTCGTT was tested, and the switch fluorescence ratio was 0.989 ± 0.026.
CCGTGTTCGA showed a switch fluorescence ratio of 1.01 ± 0.051.
With TTACGAAACG the switch fluorescence ratio was 1.08 ± 0.045.
TTTCAGACAC gave a switch fluorescence ratio of 1.02 ± 0.011.
CCATGGTTTT was tested, and the switch fluorescence ratio was 1.0024 ± 0.00092.
Sequence AATATGTGAG has a switch fluorescence ratio of 0.995 ± 0.028.
CGGATTCGGA was tested, and the switch fluorescence ratio was 1.012 ± 0.01.
Sequence TTGCTCTAGC has a switch fluorescence ratio of 1.03 ± 0.018.
Sequence AAGTGGGGGG has a switch fluorescence ratio of 1 ± 0.024.
ACTACGCCCG was tested, and the switch fluorescence ratio was 1.37 ± 0.085.
Work on AATAGTTTG yielded a switch fluorescence ratio of 1.01 ± 0.017.
GGGGAAACAT gave a switch fluorescence ratio of 1.08 ± 0.013.
TACGGCAGTG was tested, and the switch fluorescence ratio was 0.998 ± 0.025.
Work on TTGATCGGTG yielded a switch fluorescence ratio of 0.999 ± 0.023.
For ATAGTATATT, the switch fluorescence ratio was 0.982 ± 0.044.
GGTTGGTCTT showed a switch fluorescence ratio of 0.974 ± 0.041.
With TCTTATTGGG the switch fluorescence ratio was 0.995 ± 0.042.
In the case of GAGCTAACGG, the switch fluorescence ratio is reported as 1.011 ± 0.0073.
Work on AAGCACCCGT yielded a switch fluorescence ratio of 1.12 ± 0.058.
CATAGTCCTC showed a switch fluorescence ratio of 0.964 ± 0.041.
TATCGTTTTT gave a switch fluorescence ratio of 0.987 ± 0.046.
Sequence GCGTTAAGCA has a switch fluorescence ratio of 0.968 ± 0.07.
In the case of CTGAAACAGC, the switch fluorescence ratio is reported as 1.06 ± 0.043.
With AGGGGGTGGG the switch fluorescence ratio was 0.989 ± 0.02.
With GGGTGAGATC the switch fluorescence ratio was 1.02 ± 0.012.
Work on TTGTTTTATG yielded a switch fluorescence ratio of 0.998 ± 0.022.
TTGAGGGGGC was tested, and the switch fluorescence ratio was 1.01 ± 0.05.
In the case of TGCCTTATTT, the switch fluorescence ratio is reported as 0.9999 ± 0.0049.
CAATATGTAT was tested, and the switch fluorescence ratio was 0.997 ± 0.063.
CTCTTTGGGG gave a switch fluorescence ratio of 0.976 ± 0.013.
GACGCGGTTC gave a switch fluorescence ratio of 5.13 ± 0.77.
AGTATGAGTC gave a switch fluorescence ratio of 1.056 ± 0.01.
AATAGTAAAT showed a switch fluorescence ratio of 0.999 ± 0.012.
Work on ATGAAAAAAG yielded a switch fluorescence ratio of 0.993 ± 0.016.
GGCTTTGGAC gave a switch fluorescence ratio of 0.994 ± 0.055.
In the case of CCAGTTTGCA, the switch fluorescence ratio is reported as 1.02 ± 0.017.
TTCGTTAGCA gave a switch fluorescence ratio of 1.54 ± 0.8.
In the case of TTTGGATTTT, the switch fluorescence ratio is reported as 1 ± 0.045.
Sequence AAATGGATAG has a switch fluorescence ratio of 1.007 ± 0.0029.
With AAGATAGTGT the switch fluorescence ratio was 0.9936 ± 0.0057.
With TATTTTCGGA the switch fluorescence ratio was 0.97 ± 0.039.
Work on TAAGTGTATG yielded a switch fluorescence ratio of 1.007 ± 0.0034.
CGTCGGGTGG was tested, and the switch fluorescence ratio was 0.9882 ± 0.0028.
Work on TGCATTTACT yielded a switch fluorescence ratio of 1.133 ± 0.0035.
Work on GAACGAAGTT yielded a switch fluorescence ratio of 1 ± 0.018.
Work on ATATGTGGCT yielded a switch fluorescence ratio of 0.99 ± 0.054.
GCCTAAAGTT showed a switch fluorescence ratio of 0.988 ± 0.015.
In the case of AATGAAAAGT, the switch fluorescence ratio is reported as 0.992 ± 0.017.
In the case of TCTGTTGGGG, the switch fluorescence ratio is reported as 0.992 ± 0.038.
Sequence TAATGAGGGG has a switch fluorescence ratio of 0.992 ± 0.033.
Sequence GACTGGTCGA has a switch fluorescence ratio of 0.996 ± 0.053.
ATGGCACCGG gave a switch fluorescence ratio of 1.018 ± 0.0069.
For CGGGGGATCT, the switch fluorescence ratio was 1.01 ± 0.038.
Sequence CAGTCTTGC has a switch fluorescence ratio of 1.03 ± 0.021.
With GTCATAGTTC the switch fluorescence ratio was 0.966 ± 0.015.
